Source: PMC5085163

Molecular target: transducin-like enhancer of split 1 (TLE1) (human (endogenous in synovial sarcoma and control cell lines and tumor tissue)) (UniProt Q04724)
Experiment: proximity ligation; Duolink In Situ Red kit on cultured cells fixed with 3% formaldehyde and permeabilized with 0.1% Triton X-100; rabbit anti-SS18 and mouse anti-TLE1 primary antibodies overnight at 4°C; nuclear foci per nucleus; also done after HDAC inhibitors, SXT1596 and siRNA/shRNA against SS18-SSX

Sequence of UniProt Q04724 (Q04724 whole entry): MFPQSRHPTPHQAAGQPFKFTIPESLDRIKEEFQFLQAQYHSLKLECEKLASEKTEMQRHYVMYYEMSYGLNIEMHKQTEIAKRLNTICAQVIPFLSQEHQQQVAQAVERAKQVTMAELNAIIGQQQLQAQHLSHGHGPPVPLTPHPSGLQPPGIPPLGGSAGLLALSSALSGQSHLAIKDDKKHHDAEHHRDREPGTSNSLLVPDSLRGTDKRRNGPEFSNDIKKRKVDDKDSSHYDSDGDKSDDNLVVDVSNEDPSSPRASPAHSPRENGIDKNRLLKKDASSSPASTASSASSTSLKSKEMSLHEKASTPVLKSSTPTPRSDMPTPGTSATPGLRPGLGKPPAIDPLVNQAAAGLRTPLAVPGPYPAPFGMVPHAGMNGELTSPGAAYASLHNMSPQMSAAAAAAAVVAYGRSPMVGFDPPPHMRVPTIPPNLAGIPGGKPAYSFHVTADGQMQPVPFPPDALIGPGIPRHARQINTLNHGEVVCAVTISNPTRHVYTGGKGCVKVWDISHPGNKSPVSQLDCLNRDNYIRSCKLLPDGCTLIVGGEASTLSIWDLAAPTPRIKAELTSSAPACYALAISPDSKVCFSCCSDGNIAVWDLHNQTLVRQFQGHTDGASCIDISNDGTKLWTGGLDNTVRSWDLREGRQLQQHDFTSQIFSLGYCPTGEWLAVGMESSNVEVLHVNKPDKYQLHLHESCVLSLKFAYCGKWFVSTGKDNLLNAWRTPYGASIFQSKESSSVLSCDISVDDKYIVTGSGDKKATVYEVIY

Row | Substance | fold PLA signal over control cell lines
1 | SS18-SSX1 fusion oncoprotein (natural protein) | > 10 fold
2 | SS18-SSX2 fusion oncoprotein (natural protein) | > 10 fold
